The values that follow come from publication doi:10.64898/2025.12.17.694949, “Chiral inversion mutagenesis identifies geometrically constrained residues within self-associating low-complexity domains” (bioRxiv, 2025).

Like-named read-outs stand apart in the source and are kept apart here.

The target in series [1] is T1, wild-type glutathione S-transferase (GST)-EMD LCD fusion protein.
T1 sequence (P50402 whole entry, species assumed, looked up): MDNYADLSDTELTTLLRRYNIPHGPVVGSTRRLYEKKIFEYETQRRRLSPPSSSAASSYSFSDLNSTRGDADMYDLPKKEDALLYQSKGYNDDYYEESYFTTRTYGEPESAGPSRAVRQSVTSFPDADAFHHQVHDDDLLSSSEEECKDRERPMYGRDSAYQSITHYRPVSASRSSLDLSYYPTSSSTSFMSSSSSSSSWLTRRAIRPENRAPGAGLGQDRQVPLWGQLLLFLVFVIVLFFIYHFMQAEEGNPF
Kind of series: GST pulldown, Western blot against HA, densitometry. The settings on record: HA-tagged 3xPro EMD LCD prey 50 nM; n=3; parent: est. 0.26; read off a plot.

Series [2] in a line: turbidity (absorbance at 395 nm); untagged recombinant EMD LCD 3xPro library, 60 μM LCD, transferred from denaturing to native Tris buffer (n=3). The settings on record: other: turbidity (absorbance at 395 nm).
Series [3] has as its target T1, wild-type glutathione S-transferase (GST)-EMD LCD fusion protein. Kind of series: pull-down; wild-type GST-EMD LCD immobilized on glutathione resin, incubated with HA-tagged EMD LCD prey (50 nM), washed with binding buffer, eluted with GSH; Western blot against HA in eluent relative to input, densitometry (n=3). (In general: A western blot detects proteins with antibodies after separation by electrophoresis.)

Series [4] shares this target. The description is as above. This is another data set of the same source.
A further series deals with P50402. The series can be described thus: turbidity (absorbance at 395 nm); untagged semi-synthetic EMD LCD 3xD ChIM library, 50 μM LCD (n=3). Conditions: other: turbidity (absorbance at 395 nm).
Series [5] concerns the molecule itself. The description is as above.
The target of another series is P07196. Kind of series: turbidity (absorbance at 395 nm); synthetic NEFL head domain 5xD ChIM library, 100 μM LCD (n=3). Conditions: other: turbidity (absorbance at 395 nm).

For the molecule “HA-tagged EMD LCD, wild-type (recombinant) 3xPro 208-211 (insertion, not substitution: ...aa208(Pro)aa209(Pro)aa210(Pro)aa211...)”, in series [1], the response is 0.21 Fraction IP.
Take untagged EMD LCD 3xPro_(183-186): in series [2], the “fold decrease in turbidity relative to wild-type” value was “modestly reduces turbidity by 2.8-fold relative to wild-type”.
On to “HA-tagged EMD LCD 3xPro_(198-201) (domain or fragment)”, for which the fold reduction of pulldown relative to wild-type in series [3] was 3.4 fold.
With untagged EMD LCD 3xPro_(203-206), in series [2], the “fold decrease in turbidity relative to wild-type” value was “reduce turbidity by 107.6-, 16.6-, 34.7-, and 14.3-fold, respectively”.
On to “HA-tagged EMD LCD, wild-type (recombinant) 3xPro 203-205 (label as printed; insertion of three prolines, not substitution)”, for which, in series [1], the response came to 0.18 Fraction IP.
On to untagged EMD LCD 3xPro_(188-191), for which the “fold decrease in turbidity relative to wild-type” value in series [2] is “reduce turbidity by 107.6-, 16.6-, 34.7-, and 14.3-fold, respectively”.
In series [3], “HA-tagged EMD LCD 3xPro_(188-191) (domain or fragment)” yielded a fold reduction of pulldown relative to wild-type of 5 fold.
In turn, “HA-tagged EMD LCD 3xPro_(193-196) (domain or fragment)” showed a fold reduction of pulldown relative to wild-type in series [3] of 5.9 fold.
With untagged EMD LCD 3xPro_(193-196), the “fold decrease in turbidity relative to wild-type” value in series [2] is “reduce turbidity by 107.6-, 16.6-, 34.7-, and 14.3-fold, respectively”.
In series [3], “HA-tagged EMD LCD 3xPro_(183-186) (domain or fragment)” registered a fold reduction of pulldown relative to wild-type of 2.2 fold.
Turning to untagged EMD LCD 3xPro_(198-201), the “fold decrease in turbidity relative to wild-type” value in series [2] was “reduce turbidity by 107.6-, 16.6-, 34.7-, and 14.3-fold, respectively”.
As for “HA-tagged EMD LCD, wild-type (recombinant) 3xPro 178-181 (insertion, not substitution: ...aa178(Pro)aa179(Pro)aa180(Pro)aa181...)”, the response in series [1] came to 0.21 Fraction IP.

B1: HA-tagged semi-synthetic EMD LCD 3xD_(191-195) (domain or fragment)
chain: RRLSPPSSSAASSYSFSDLNSTRGDADMYDLPKKEDALLYQSKGYNDDYYEESYFTTRTYGEPESAGPSRAVRQSVTSFPDADAFHHQVHDDDLLSSSEEECKDRERPMYGRDSAYQSITHYRPVSASRSSLDLSYYPTSSSTCFMSSSSSSSSWLTRRAIRPENRAPGAGLGQER
modifications: three D-amino acids at alternating positions within 191-195
Molecule B1 displayed a fold reduction of pulldown relative to wild-type in series [4] of 8.8 fold.

B2: HA-tagged semi-synthetic EMD LCD 3xD_(195-199) (domain or fragment)
chain: RRLSPPSSSAASSYSFSDLNSTRGDADMYDLPKKEDALLYQSKGYNDDYYEESYFTTRTYGEPESAGPSRAVRQSVTSFPDADAFHHQVHDDDLLSSSEEECKDRERPMYGRDSAYQSITHYRPVSASRSSLDLSYYPTSSSTCFMSSSSSSSSWLTRRAIRPENRAPGAGLGQER
modifications: three D-amino acids at alternating positions within 195-199
For the molecule B2, the fold reduction of pulldown relative to wild-type in series [4] amounted to 7.9 fold.

B3: untagged semi-synthetic EMD LCD 3xD_(203-207) (protein)
chain: RRLSPPSSSAASSYSFSDLNSTRGDADMYDLPKKEDALLYQSKGYNDDYYEESYFTTRTYGEPESAGPSRAVRQSVTSFPDADAFHHQVHDDDLLSSSEEECKDRERPMYGRDSAYQSITHYRPVSASRSSLDLSYYPTSSSTCFMSSSSSSSSWLTRRAIRPENRAPGAGLGQER
As for B3, the “fold decrease in turbidity relative to wild-type” value with P50402 is listed as “displays a modest 1.4-fold decrease in turbidity”.

B4: untagged semi-synthetic EMD LCD 3xD_(195-199) (protein)
chain: RRLSPPSSSAASSYSFSDLNSTRGDADMYDLPKKEDALLYQSKGYNDDYYEESYFTTRTYGEPESAGPSRAVRQSVTSFPDADAFHHQVHDDDLLSSSEEECKDRERPMYGRDSAYQSITHYRPVSASRSSLDLSYYPTSSSTCFMSSSSSSSSWLTRRAIRPENRAPGAGLGQER
Regarding B4, the “fold decrease in turbidity relative to wild-type” value with P50402 is 13.3-, 2.8-, and 2.1-fold decreases in turbidity.

B5: HA-tagged semi-synthetic EMD LCD 3xD_(199-203) (domain or fragment)
chain: RRLSPPSSSAASSYSFSDLNSTRGDADMYDLPKKEDALLYQSKGYNDDYYEESYFTTRTYGEPESAGPSRAVRQSVTSFPDADAFHHQVHDDDLLSSSEEECKDRERPMYGRDSAYQSITHYRPVSASRSSLDLSYYPTSSSTCFMSSSSSSSSWLTRRAIRPENRAPGAGLGQER
modifications: three D-amino acids at alternating positions within 199-203
Regarding B5, the fold reduction of pulldown relative to wild-type in series [4] is 6.2 fold.

B6: HA-tagged semi-synthetic EMD LCD 3xD_(207-211) (domain or fragment)
chain: RRLSPPSSSAASSYSFSDLNSTRGDADMYDLPKKEDALLYQSKGYNDDYYEESYFTTRTYGEPESAGPSRAVRQSVTSFPDADAFHHQVHDDDLLSSSEEECKDRERPMYGRDSAYQSITHYRPVSASRSSLDLSYYPTSSSTCFMSSSSSSSSWLTRRAIRPENRAPGAGLGQER
modifications: three D-amino acids at alternating positions within 207-211
Regarding B6, the fold reduction of pulldown relative to wild-type in series [4] turned out to be 1.8 fold.

B7: untagged semi-synthetic EMD LCD 3xD_(191-195) (protein)
chain: RRLSPPSSSAASSYSFSDLNSTRGDADMYDLPKKEDALLYQSKGYNDDYYEESYFTTRTYGEPESAGPSRAVRQSVTSFPDADAFHHQVHDDDLLSSSEEECKDRERPMYGRDSAYQSITHYRPVSASRSSLDLSYYPTSSSTCFMSSSSSSSSWLTRRAIRPENRAPGAGLGQER
On to B7, for which, in the series with P50402, the “fold decrease in turbidity relative to wild-type” value was 13.3-, 2.8-, and 2.1-fold decreases in turbidity.

B8: HA-tagged semi-synthetic EMD LCD 3xD_(203-207) (domain or fragment)
chain: RRLSPPSSSAASSYSFSDLNSTRGDADMYDLPKKEDALLYQSKGYNDDYYEESYFTTRTYGEPESAGPSRAVRQSVTSFPDADAFHHQVHDDDLLSSSEEECKDRERPMYGRDSAYQSITHYRPVSASRSSLDLSYYPTSSSTCFMSSSSSSSSWLTRRAIRPENRAPGAGLGQER
modifications: three D-amino acids at alternating positions within 203-207
With B8, the fold reduction of pulldown relative to wild-type in series [4] came to 3.6 fold.

B9: untagged semi-synthetic EMD LCD 3xD_(199-203) (protein)
chain: RRLSPPSSSAASSYSFSDLNSTRGDADMYDLPKKEDALLYQSKGYNDDYYEESYFTTRTYGEPESAGPSRAVRQSVTSFPDADAFHHQVHDDDLLSSSEEECKDRERPMYGRDSAYQSITHYRPVSASRSSLDLSYYPTSSSTCFMSSSSSSSSWLTRRAIRPENRAPGAGLGQER
For the molecule B9, the “fold decrease in turbidity relative to wild-type” value with P50402 was 13.3-, 2.8-, and 2.1-fold decreases in turbidity.

B10: HA-tagged semi-synthetic EMD LCD 3xD_(211-215) (domain or fragment)
chain: RRLSPPSSSAASSYSFSDLNSTRGDADMYDLPKKEDALLYQSKGYNDDYYEESYFTTRTYGEPESAGPSRAVRQSVTSFPDADAFHHQVHDDDLLSSSEEECKDRERPMYGRDSAYQSITHYRPVSASRSSLDLSYYPTSSSTCFMSSSSSSSSWLTRRAIRPENRAPGAGLGQER
modifications: three D-amino acids at alternating positions within 211-215
As for B10, the fold reduction of pulldown relative to wild-type in series [4] turned out to be 1.7 fold.

B11: untagged semi-synthetic EMD LCD (residues 46-221), all L- wild-type (domain or fragment, UniProt P50402 46-221, looked up)
chain: RRLSPPSSSAASSYSFSDLNSTRGDADMYDLPKKEDALLYQSKGYNDDYYEESYFTTRTYGEPESAGPSRAVRQSVTSFPDADAFHHQVHDDDLLSSSEEECKDRERPMYGRDSAYQSITHYRPVSASRSSLDLSYYPTSSSTCFMSSSSSSSSWLTRRAIRPENRAPGAGLGQER
notes: Emerin (EMD) low-complexity domain, residues 46-221 (P1 46-188 recombinant, P2 189-221 synthetic); P2 made on Rink amide resin (C-terminal amide surmised); source: RP-HPLC purified
Regarding B11, the binding result in series [5] is “binds”.

B12: synthetic NEFL head domain 5xD_(22-30) (protein)
chain: SSFSYEPYYSTSYKRRYVETPRVHISSVRCGYSTARSAYSSYSAPVSSSLSVRRSYSSSSGSLMPSLENLELS
For B12, the “fold decrease in turbidity relative to wild-type” value in the series with P07196 was “with 9.1-fold and 20-fold decreases in turbidity relative to wild-type, respectively”.

B13: synthetic NEFL head domain 5xD_(43-51) (protein)
chain: SSFSYEPYYSTSYKRRYVETPRVHISSVRCGYSTARSAYSSYSAPVSSSLSVRRSYSSSSGSLMPSLENLELS
Consider B13, for which, in the series with P07196, the “fold decrease in turbidity relative to wild-type” value is “with 2.7-fold, 1.6-fold, and 1-fold relative decreases in turbidity, respectively”.

B14: synthetic NEFL head domain 5xD_(53-63) (protein)
chain: SSFSYEPYYSTSYKRRYVETPRVHISSVRCGYSTARSAYSSYSAPVSSSLSVRRSYSSSSGSLMPSLENLELS
Consider B14, for which, in the series with P07196, the “fold decrease in turbidity relative to wild-type” value is “with 2.7-fold, 1.6-fold, and 1-fold relative decreases in turbidity, respectively”.

B15: synthetic NEFL head domain 5xD_(63-71) (protein)
chain: SSFSYEPYYSTSYKRRYVETPRVHISSVRCGYSTARSAYSSYSAPVSSSLSVRRSYSSSSGSLMPSLENLELS
Take B15: the “fold decrease in turbidity relative to wild-type” value with P07196 is “with 2.7-fold, 1.6-fold, and 1-fold relative decreases in turbidity, respectively”.

B16: synthetic NEFL head domain 5xD_(33-41) (protein)
chain: SSFSYEPYYSTSYKRRYVETPRVHISSVRCGYSTARSAYSSYSAPVSSSLSVRRSYSSSSGSLMPSLENLELS
With B16, the “fold decrease in turbidity relative to wild-type” value with P07196 was “with 9.1-fold and 20-fold decreases in turbidity relative to wild-type, respectively”.
